Assay results: PMC7954794, “Protein context shapes the specificity of SH3 domain-mediated interactions in vivo” (Nature Communications, 2021)

B1: YLR337C (protein, UniProt P37370 1-817, looked up)
Verprolin: MAGAPAPPPPPPPPALGGSAPKPAKSVMQGRDALLGDIRKGMKLKKAETNDRSAPIVGGGVVSSASGSSGTVSSKGPSMSAPPIPGMGAPQLGDILAGGIPKLKHINNNASTKPSPSASAPPIPGAVPSVAAPPIPNAPLSPAPAVPSIPSSSAPPIPDIPSSAAPPIPIVPSSPAPPLPLSGASAPKVPQNRPHMPSVRPAHRSHQRKSSNISLPSVSAPPLPSASLPTHVSNPPQAPPPPPTPTIGLDSKNIKPTDNAVSPPSSEVPAGGLPFLAEINARRSERGAVEGVSSTKIQTENHKSPSQPPLPSSAPPIPTSHAPPLPPTAPPPPSLPNVTSAPKKATSAPAPPPPPLPAAMSSASTNSVKATPVPPTLAPPLPNTTSVPPNKASSMPAPPPPPPPPPGAFSTSSALSASSIPLAPLPPPPPPSVATSVPSAPPPPPTLTTNKPSASSKQSKISSSSSSSAVTPGGPLPFLAEIQKKRDDRFVVGGDTGYTTQDKQEDVIGSSKDDNVRPSPISPSINPPKQSSQNGMSFLDEIESKLHKQTSSNAFNAPPPHTDAMAPPLPPSAPPPPITSLPTPTASGDDHTNDKSETVLGMKKAKAPALPGHVPPPPVPPVLSDDSKNNVPAASLLHDVLPSSNLEKPPSPPVAAAPPLPTFSAPSLPQQSVSTSIPSPPPVAPTLSVRTETESISKNPTKSPPPPPSPSTMDTGTSNSPSKNLKQRLFSTGGSTLQHKHNTHTNQPDVDVGRYTIGGSNSIVGAKSGNERIVIDDSRFKWTNVSQMPKPRPFQNKTKLYPSGKGSSVPLDLTLFT
B2: YFL010C (protein, UniProt P43582 1-211, looked up)
WW domain-containing protein …: MAQSKSNPPQVPSGWKAVFDDEYQTWYYVDLSTNSSQWEPPRGTTWPRPKGPPPGVNNEKSSRQQADQAPPPYSSQSTPQVQAGAQAQQPRYYQPQQPQYPQYPQQQRYYPQQAPMPAAAPQQAYYGTAPSTSKGSGHGGAMMGGLLGVGAGLLGGAMLEHAFDDHNYDGPDTVVVENNYYGDDAGGSDGGFDDAGGFDGGFDDGFDGSDF
B3: YIR006C (protein, UniProt P32521 1-1480, looked up)
Actin cytoskeleton-regulatory …: MYNPYQQQGMGYQQQQQQQQQQPNGFYPQQQQGQSSNQPQGQPQPQQQMAFNQPQATGIGGMPQSFGNSFSSMPQQPQTGYNNNGNNGSVYGNGNFGQQPQQQQQQAKPQHTGYVPNSSMPMMNTTGTMPPPNPAQQPQLQSIQPQGTGYYQAANTANVHSVQPLQSQGTGYYVSTPNLISSNQTQQPLQAQGTGYYQSQPQQVPPPQQAQSLQPLKPQQTGFYLQPQNQAPLEPLKPTATGFVNSFANNGLNNDIKIPAIRLSFITAQDQAKFETLFRSIVTNGSNTVSGANCRKILMRSGLPPSQLARIWTLCDTSKAGELLFPEFALAMHLINDVLQGDTIPYELDSKTKNEVSSFIDAINLSIANQDSSANDAPKTPFDEFITAGVQNLQPQPTGYMPQTSFGIPLQSQITGGGVASALNPQSTGFMAPTTFNMSMNTGTPGLNPQITGGAPASMQPNITGNALQPQTTGMMPQTTGMMPQTTGMMPQTSFGVNLGPQLTGGALQSQYTGGYGSVMPQQSGPASMPNLSFNQQGLQSQLTGLQPQPTGFLPPSNFSATMPLTAQKTGFGNNEIYTKSNFNNNLIDNSSQDKISTEEKSLFYKIFETFDTQNKGLLDSPTAVEIFRKSGLNRADLEQIWNLCDINNTGQLNKQEFALGMHLVYGKLNGKPIPNVLPSSLIPSSTKLLDNLKNQLKTEPTTTKEKPSFGKIDALSYKNNDDDVLPNYRNRRKVYSAKNEEQSSFSSPSAKSVNHSSSTLQTDDISVDKTVEKKTAKPKYAGFSREINLKNIASLENEIKNISNPENCYDSSIPSDLTSRFDAIIAKLPNLFNEISTIDNEITNAKIQLYRKKNPSSIIGSGPNGEITENDRKKAKSRALLRARMSALTGKSTESEDSLSMEDEQQSAEIKRIQQENGKNQEIIKDIRSSISDISASLKSTMTGSNMISNQEFERWEFGIGLEDGVREFLDDLKSNSNKSVTESSPFVPSSTPTPVDDRSSSPSYSQFKTAEERAAYLKEQAKKRMKEKLAKFDKNRRNVTQSSRSISSENSREQPQQIAGSSNLVEPRATPFQEEKYVEVAQPTQPVQSTQPVQPTQPVQPTQPVQPTQPVQPTQPVQPTQPVQNVYNAKQESDDEDEDDEEKRLQEELKRLKLKKKADKEKRLAALRKQIEDAQNESDEEETNGKDNFGGHVNVPQAAPVAPSAAFSQNSTNAPRSVHAAVTPAAGKNSTGLPSTTMGHNPYFKDASASSTSTFDARAAEMQRRIQRGLDEDEDDGWSDEDESNNRVAVDNKVEEAKIGHPDHARAPPVTAAPLPSVTPVPPAVPVPQANTSNEKSSPIPIAPIPPSVTQEPPVPLAPPLPAVDGFQEPPIPSAPAIATAVQKSGSSTPALAGGVLPPPPPLPTQQASTSEPIIAHVDNYNGAEKGTGAYGSDSDDDVLSIPESVGTDEEEEGAQPVSTAGIPSIPPAGIPPPPPLP
B4: YOR042W (protein, UniProt Q08412 1-411, looked up)
Ubiquitin-binding protein CUE5: MEEKEGIKDSSLLEKSNVPESINEDISKTTDVDLNSDGKKDNDTSAKDGTPKVEEKVNKSSGIDEDEVVTPAEDAKEEEEEHPPLPARRKSEEEPSKENPILQELKDAFPNLEEKYIKAVIIASQGVLSPAFNALLFLSDPESGKDIELPTQPVRKNPEAPARRRQTQLEQDELLARQLDEQFNSSHSRRRNRDRATRSMHEQRRRRHNPNEREQHHEDSEEEDSWSQFVEKDLPELTDRAGRSLQDTANKVSNWISDAYRRNFASGNEQNDNQHGHQDQQEWEPEIVDLSQGGKNSRPQQPERRRFNSFGVQVGDDSLESHGITLHNEDGFEDDEDVPPQLPTRTKSGESTGKVVAETTYIDTPDTETKKKWQPLPPEPLDTTPTKVNAVSRNKKNPDEDEFLINSDDEM
B5: YIR003W (protein, UniProt P40563 1-679, looked up)
Altered inheritance of …: MPSEVTPKVPERPSRRKTSELFPLSGSESGDIKANSEPPTPAGTPNVPTRRPILKAKTMTSFESGMDQESLPKVPLQRPVRRSTTEELNNVMNNTSKELEEIESLISKHNIHNVSRKKSPTSVEEGKVAAIHQNGQRSASDNKTSTNPSPLEKNEHEGAEGNESAISPSNLVNKSNNEVTEHSDSEDLTEKQKVHAALDNEAGDRSHFEEKLIPGDMKVQVDVSKDVEEGSLNALPPSGITESDDKAEKFTKHPESSLEELQKHQEQQEEKIFQNPTDEESTTSLNEKQEGKDNMEVNSQPQGPSDTETVIAATSSNVPSQIASEEENDVPVIPRSRPKKDFEAHVQKEELPNTQEKRVSEECDSTLISTEEESKIPKIPSERPKRRAPPPVPKKPSSRIAAFQEMLQKQQQQDLHNNGNSSATTASADIAKKHTDSSITSDTTKADFTSKLNGLFALPGMVNPGQLPPSLEKKLSSPDTESKLGPQDQSQAKTGPLGGTRRGRGPRGRKLPSKVASVEKIEEDDNTNKIEIFNNWNVSSSFSKEKVLIDTTPGEQAERALDEKSKSIPEEQREQSPNKMEAALCPFELDEKEKLPANAESDPLSQLPQTNAVGNRKAISEESLSPSEAIANRDQNDTTEIQEQQMEDQMEVDMERELSGGYEDVDSALHSEEASFHSL
B6: YLR196W (protein, UniProt P21304 1-576, looked up)
Periodic tryptophan protein 1: MISATNWVPRGFSSEFPEKYVLDDEEVERINQLAQLNLDDAKATLEEAEGESGVEDDAATGSSNKLKDQLDIDDDLKEYNLEEYDDEEIADNEGGKDVSMFPGLSNDSDVKFHEGEKGEDPYISLPNQEDSQEEKQELQVYPSDNLVLAARTEDDVSYLDIYVYDDGAGFHSSDIPVEEGDEADPDVARGLVRDPALYVHHDLMLPAFPLCVEWLDYKVGSNSEEAANYAAIGTFDPQIEIWNLDCVDKAFPDMILGEPLDNSMVSLKSKKKKKKSKTGHITTHHTDAVLSMAHNKYFRSVLASTSADHTVKLWDLNSGNAARSLASIHSNKNVSSSEWHMLNGSILLTGGYDSRVALTDVRISDESQMSKYWSAMAGEEIETVTFASENIILCGTDSGNVYSFDIRNNENRKPVWTLKAHDAGISTLCSNKFIPGMMSTGAMGEKTVKLWKFPLDDATNTKGPSMVLSRDFDVGNVLTSSFAPDIEVAGTMVIGGVNKVLKLWDVFTNRSVRKSFKSELENVQARAKEEAQKIGKSSRIARKYTSNDNPDTVITIDDQGEDEEEREGGDEHDDMA

Tested on: ABP1
Assay: DHFR-PCA on solid medium, bait ABP1 (Fig. 1B)
Format: cell-based, Saccharomyces cerevisiae
Settings: bait ABP1, label = prey; 2-4 replicates
Excerpt: (§1) Supplement 41467_2021_21873_MOESM8_ESM.xlsx, sheet "Fig1B" | column: medsize; medrep; Ratio; Score

Compared with B1, B2 is lower in “medrep (log2 median colony size normalized to plate background, PCA score)” value: 4.481 for the first, 2.163 for the second.

Going from B3 to B4, the “medrep (log2 median colony size normalized to plate background, PCA score)” value falls from 5.062 to 4.057.

Compared with B5, B6 is lower in “medrep (log2 median colony size normalized to plate background, PCA score)” value: 4.768 for the first, 3.732 for the second.

Tested on: 575 putative partners (preys) of 22 WT SH3-containing proteins
Assay: DHFR-PCA on solid medium, WT and SH3-deleted baits (Fig. 1B)
Format: cell-based, Saccharomyces cerevisiae
Parameters: key to Score: 0: SH3-independent; 1: SH3-dependent PPIs; 2: SH3-inhibited PPIs
Settings: bait SLA1-2, DHFR-PCA, label = prey; Replicates 4 (2 for YCR009C, YDR388W)
In short: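 Interactions scored by DHFR protein-fragment complementation on solid medium using robotic pinning; preys (DHFR F[3] fusions) arrayed in duplicate with control borders. Baits carried C-terminal DHFR F[1,2]-FLAG tags, tested as wild type and as SH3-deleted versions carrying a flexible Gly/Ser stuffer.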

Compared with B1, B4 is higher in “medrep (log2 median colony size normalized to plate background, PCA score)” value: 2.095 for the first, 2.528 for the second.

B5 was tested, and the “medrep (log2 median colony size normalized to plate background, PCA score)” value was 2.274.

Same assay, conditions: bait SLA1-2, label = prey

B1 and B4 are the same in Score: 1 for the first, 1 for the second.

With B5 the Score was 1.

Same assay, conditions: bait SLA1-2, label = prey; only significant differences shown; PPIs completely lost have a ratio of 0.1, gained PPIs 2.5

Going from B1 to B4, the “Ratio (SH3-deleted/WT medrep)” value falls from 0.4282 to 0.1.

For B5, the “Ratio (SH3-deleted/WT medrep)” value was 0.1.

Same assay, conditions: bait SLA1-3, DHFR-PCA, label = prey; Replicates 4 (2 for YCR009C, YDR388W, YIL033C)

B1 and B3 are within 0.2 log units of each other in “medrep (log2 median colony size normalized to plate background, PCA score)” value: 4.892 for the first, 4.7899 for the second.

Compared with B4, B5 is lower in “medrep (log2 median colony size normalized to plate background, PCA score)” value: 2.528 for the first, 2.274 for the second.

Same assay, conditions: bait SLA1-3, label = prey

B1 and B3 are the same in Score: 0 for the first, 0 for the second.

B4 and B5 are the same in Score: 0 for the first, 0 for the second.

Tested on: BBC1
Assay: DHFR-PCA on solid medium, bait BBC1 (Fig. 1B)
Format: cell-based, Saccharomyces cerevisiae
Settings: bait BBC1, label = prey; 2-4 replicates
Excerpt: as §1

Going from B1 to B2, the “medrep (log2 median colony size normalized to plate background, PCA score)” value falls from 2.429 to 1.4009.

B3 and B4 are within 0.2 log units of each other in “medrep (log2 median colony size normalized to plate background, PCA score)” value: 1.896 for the first, 1.718 for the second.

Compared with B5, B6 is lower in “medrep (log2 median colony size normalized to plate background, PCA score)” value: 5.119 for the first, 2.428 for the second.

Same assay, conditions: bait BBC1, label = prey; only significant differences showed; PPIs completely lost have a ratio of 0.1 and the gained PPIs 2.5

Compared with B1, B2 is lower in “Ratio (SH3-deleted/WT medrep)” value: 0.57 for the first, 0.1 for the second.

First: B3
Second: B4
The “Ratio (SH3-deleted/WT medrep)” value of the first is higher: 0.4416 for the first, 0.1 for the second.

For B6, the “Ratio (SH3-deleted/WT medrep)” value was 0.1.
